Experiment in all cases: purified protein
For series [1], the system named is O=C(O)C(=O)C[C@@H](O)[C@@H](O)[C@H](O)[C@H](O)COP(=O)(O)O. The following applies: Mg2+; pH 10.0.
Substrate in series [2]: Nc1ccn([C@@H]2O[C@H](COP(=O)(O)OP(=O)(O)OP(=O)(O)O)[C@@H](O)[C@H]2O)c(=O)n1
Format: biochemical, Escherichia coli. The following applies: Mg2+; pH 9.3.

Substrate in series [3]: O=C(O)C(=O)C[C@@H](O)[C@@H](O)[C@H](O)[C@H](O)CO
The series is classed as biochemical, Escherichia coli. The following applies: Mg2+; pH 9.3.

Usually Km stands for the concentration of substrate that gives half-maximal velocity. On to “3-deoxy-D-manno-octulosonic acid 8-phosphate phosphatase (KdsC) (Escherichia coli K-12)”, for which, in series [1], the Km was 370 ± 10 µM.

B1: 3-deoxy-D-manno-octulosonate cytidylyltransferase (KdsB, CMP-KDO synthetase) (Escherichia coli K-12) (protein)
chain: MSFVVIIPARYASTRLPGKPLVDINGKPMIVHVLERARESGAERIIVATDHEDVARAVEAAGGEVCMTRADHQSGTERLAEVVEKCAFSDDTVIVNVQGDEPMIPATIIRQVADNLAQRQVGMATLAVPIHNAEEAFNPNAVKVVLDAEGYALYFSRATIPWDRDRFAEGLETVGDNFLRHLGIYGYRAGFIRRYVNWQPSPLEHIEMLEQLRVLWYGEKIHVAVAQEVPGTGVDTPEDLERVRAEMR
With B1, the figures for the Km in “purified protein [2]” and in “purified protein [3]” were 330 ± 40 µM and 280 ± 20 µM, respectively.
